Reference: patent US20220387557A1 (OXFORD UNIVERSITY INNOVATION, published 2022)

Assays:
[1] = biological target: T1, Fc tagged mouse TNFR1 (Sino Biological) (mouse, UniProt P25118 22-212, limits assumed); assay: SPR, Biacore T200 multi cycle kinetics, receptor-Fc captured on Protein A chip, TNF 1.25-40 nM, 1:1 model
T1 construct: Bought reagent; also called mTNFR1; mTNFR1-Fc; not shown: Fc tag of the bought protein
T1 sequence (looked up): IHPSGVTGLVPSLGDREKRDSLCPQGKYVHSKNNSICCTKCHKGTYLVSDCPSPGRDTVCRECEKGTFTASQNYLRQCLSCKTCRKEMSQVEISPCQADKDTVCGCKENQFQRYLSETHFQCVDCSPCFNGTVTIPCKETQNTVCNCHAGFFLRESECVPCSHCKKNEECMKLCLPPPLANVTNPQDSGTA
Protocol: (§1) Multi cycle kinetics analysis of binding to hTNFR1, hTNFR2, mTNFR1 and mTNFR2 was performed on the 10 lead variants using a Biacore T200 (serial no. 1909913) instrument running Biacore T200 Evaluation Software V3.0.1 (Uppsala, Sweden) to characterise further the binding to these receptors.
(§2) As with the single cycle kinetics, receptor binding was assessed in two separate experiments. In the first set of experiments binding to hTNFR1 (Fc2), hTNFR2 (Fc3) and mTNFR1 (Fc4) was assessed. In the second set of experiments the extent of mTNF2 (Fc4) binding was assessed using hTNFR1 (Fc2) and hTNFR2 (Fc3) as controls. All receptors were diluted in running buffer to a concentration of ˜4 μg/mL and at the start of each cycle loaded onto Fc2, Fc3 and Fc4 of a Protein A CM5 chip and captured at a flow rate of 10 μL/min to give an RU of ˜40-100. The surface was then allowed to stabilise. All kinetic data was obtained using a flow rate of 75 μl/min to minimise any potential mass transfer effects. […] The association phase of TNF was monitored for 280 seconds and the dissociation phase was measured for 2100 seconds. […] Regeneration of the Protein A surface was conducted using two injections of 10 mM glycine-HCL pH 1.5 at the end of each cycle. The signal from the reference channel Fc1 was subtracted from that of Fc2, Fc3 and Fc4 to correct for differences in non-specific binding to a reference surface, and a global Rmax parameter was used in the 1-to-1 binding model.

[2] = biological target: T2, Fc tagged human TNFR1 (Sino Biological) (human, UniProt P19438 22-211, limits assumed); assay: as above
T2 construct: Bought reagent; also called hTNFR1; hTNFR1-Fc; not shown: Fc tag of the bought protein
T2 sequence (looked up): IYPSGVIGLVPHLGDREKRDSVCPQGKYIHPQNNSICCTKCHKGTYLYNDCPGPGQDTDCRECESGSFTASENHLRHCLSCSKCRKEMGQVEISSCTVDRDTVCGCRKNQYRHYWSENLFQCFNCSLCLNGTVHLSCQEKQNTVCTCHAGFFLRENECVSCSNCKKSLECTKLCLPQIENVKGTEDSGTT
Protocol: as §1, §2

[3] = biological target: T3, Fc tagged human TNFR2 (Sino Biological) (human, UniProt P20333 23-257); assay: as above
T3 construct: Bought reagent; also called hTNFR2; hTNFR2-Fc; not shown: Fc tag of the bought protein
T3 sequence (looked up): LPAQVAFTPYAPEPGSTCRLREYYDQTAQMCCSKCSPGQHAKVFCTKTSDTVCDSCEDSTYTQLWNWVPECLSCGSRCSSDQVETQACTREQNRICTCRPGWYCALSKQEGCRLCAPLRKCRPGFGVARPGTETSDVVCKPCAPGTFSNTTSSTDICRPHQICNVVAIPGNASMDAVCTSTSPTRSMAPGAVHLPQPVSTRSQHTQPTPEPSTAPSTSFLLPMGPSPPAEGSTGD
Protocol: as §1, §2

[4] = biological target: T2, Fc tagged human TNFR1 (Sino Biological); assay: SPR, Biacore single cycle kinetics, stability study, after 1 year at -20° C.
Protocol: Due to the limit in the number of available flow cells for analysis (three Fc per analysis, Fc2, Fc3 and Fc4, with Fc1 always being used as blank reference for non-specific subtraction), receptor binding was assessed in two separate overlapping runs using either: hTNFR1 (Fc2), hTNFR2 (Fc3) and mTNFR1 (Fc4), or; hTNFR1 (Fc2), […] and mTNFR2 (Fc4). Receptors were diluted in running buffer to a concentration of ˜4 μg/mL and at the start of each cycle loaded onto Fc2, Fc3 and Fc4 of a Protein A chip (GE Healthcare, Little Chalfont, UK) at a flow rate of 10 μL/min to give an RU of 40-100. The surface was then allowed to stabilise. Single cycle kinetic data was obtained at a flow rate of 45 μL/min. […] The association phase for the three injections of increasing concentrations of TNF was monitored for 240 seconds and a single dissociation phase was measured for 2700 seconds following the last injection of TNF. Regeneration of the Protein A surface was conducted using 10 mM glycine-HCl pH 1.5. The signal from the reference channel Fc1 (no receptor) was subtracted from that of Fc2, Fc3 and Fc4 to correct for differences in non-specific binding to a reference surface.
At day zero (prior to freezing) and following thawing on ice after 3 months and 1 year the following assays were performed: [0341] SDS-PAGE [0342] OD280 nm [0343] Single cycle Biacore for binding to hTNFR1, hTNFR2 and mTNFR1

B1: TNF mutein B2 (ligand)
chain: VRSSSRTPSDKPVAHVVANPQAEGQLQWLNRRANALLANGVELRDNQLVVPSEGLYLIYSQVLFKGQGCPSTHVLLTHTISRITASYSGKVNLLSAIKSPCQRETPEGAEAKPWYEPIYLGGVFQLEKGDRLSAEINRPDYLDFAESGQVYFGIIAL
notes: Human TNF mutein, TASYSG at positions 84-89; not shown: C-terminal FLAG tag and His6 tag from vector pANT65
Kd [1]: 0.177 nM | Kd [2]: 0.0216 nM | Kd [3]: 0.407 nM | Kd [4]: 0.039 nM
